In this assay the target is T1, human α4β1 integrin (human, UniProt P13612 34-1032; P05556 21-798).
T1 construct: whole, on cells; also called VLA-4; alpha-4-beta-1 integrin
Description: ELISA on L cells expressing α4β1 integrin; crude supernatants. On the technique in general: In an ELISA, binding on a coated surface is turned into a signal by an enzyme label.

B1: reshaped human 21.6 antibody (La + Ha) (antibody, V domains shown)
VH: QVQLVQSGAEVKKPGASVKVSCKASGFNIKDTYIHWVRQAPGQRLEWMGRIDPANGYTKYDPKFQGRVTITADTSASTAYMELSSLRSEDTAVYYCAREGYYGNYGVYAMDYWGQGTLVTVSS
VL: DIQMTQSPSSLSASVGDRVTITCKTSQDINKYMAWYQQTPGKAPRLLIHYTSALQPGIPSRFSGSGSGRDYTFTISSLQPEDIATYYCLQYDNLWTFGQGTKVEIK
notes: Expressed in Cos cells
For B1, the binding result is “binds”.

B2: reshaped human 21.6 antibody (Lb + Ha) (antibody, V domains shown)
VH: QVQLVQSGAEVKKPGASVKVSCKASGFNIKDTYIHWVRQAPGQRLEWMGRIDPANGYTKYDPKFQGRVTITADTSASTAYMELSSLRSEDTAVYYCAREGYYGNYGVYAMDYWGQGTLVTVSS
VL: DIQMTQSPSSLSASVGDRVTITCKTSQDINKYMAWYQQTPGKAPRLLIYYTSALQPGIPSRFSGSGSGRDYTFTISSLQPEDIATYYCLQYDNLWTFGQGTKVEIK
notes: Human kappa / human gamma-1 constant regions; tested as crude Cos supernatant; Lb is therefore built here from La with the stated change; also called version Lb in combination with version Ha
Consider B2, for which the binding result is “binds”.
